Data: US20160228506A1, “Compositions and Formulations for Prevention and Reduction of Tumorigenesis, Cancer Cell Proliferation and Invasion, and Methods of Production and Use Thereof in Cancer Treatment” (PRONUTRIA, INC., priority 2013, published 2016)

Tests used:
[1] = pH solubility; assay type: physicochemical; settings: for pH Range where Protein is >80% detected as Soluble and A650 <1 OD: Low: lower pH; for pH Range where Protein is >80% detected as Soluble and A650 <1 OD: High: upper pH
Description: pH Solubility. […] Protein was either lyophilized and then resuspended in buffer cocktail mixtures, or concentrated and then spiked into buffer cocktail mixtures at a final protein concentration of 5 to 30 mg/ml. As a control, protein was also dissolved in a solution of 8 M urea. Protein solutions were shaken for 10 min at room temperature. Turbidity of proteins was determined by measuring the absorbance of protein solutions at 650 nm. The protein solution was then centrifuged for 10 min at 1100×g to pellet undissolved or precipitated protein. The soluble protein fraction (supernatant) was sampled and protein concentration was measured by one or more of the following methods: Coomassie Plus Protein Assay (Pierce), Chip electrophoresis, gel electrophoresis, and/or absorbance at 280 nm. The pH range over which select proteins remained greater than 80% soluble as determined by Bradford and the A650 value are listed in Table E31C.

[2] = Thermostability, temperature of aggregation (ProteoStat Thermal Shift); assay type: physicochemical; set-up: key to Tagg: temperature in °C; settings: for Tagg (pH 7.1): Table E31D, heated 25° C. to 95° C.
Description: The thermostability of proteins in a buffer cocktail of Citric Acid and Dibasic Sodium Phosphate over a pH range of 2.8 to 7.1 (preparation described above in Table E31B) was determined using the ProteoStat® Thermal Shift Stability Kit (Enzo Life Sciences) according to the manufacturer's standard protocol. Briefly, protein solutions (˜10 mg/ml) containing 1× ProteoStat TS Detection Reagent were heated from 25° C. to 95° C. at a rate of 0.5° C. per 30 sec using a real-time PCR (rtPCR) thermocycler (BioRad) equipped with a plate reader (SynergyMx, Biotek) while monitoring the fluorescence with a Texas Red filter.

[3] = Intact half-life during simulated gastric fluid (SGF) digestion; settings: for SGF Half-life (t½): SGF pH 1.5, pepsin:polypeptide 1:20 w/w, 37° C., intact protein; for Half-life: purified proteins, chip electrophoresis
Description: In this experiment the nutritive polypeptide was exposed to a series of proteases that are active in the stomach (pepsin) and intestine (trypsin and chymotrypsin), and the presence of intact protein was measured over time. Specifically, the nutritive polypeptide was first treated at a concentration of 2 g/L with simulated gastric fluid (SGF) (0.03 M NaCl, titrated with HCl to pH 1.5 with a final pepsin:polypeptide ratio of 1:20 w/w) at 37° C. Time points were sampled from the reaction and quenched by addition of 0.2 M Na2CO3. […] Time points were sampled from the reaction and quenched by addition of Trypsin/Chymotrypsin Inhibitor (Sigma) solution until 240 min.
Time point samples were analyzed for intact protein by chip electrophoresis, polyacrylamide gel electrophoresis, or western blot. For chip electrophoresis (Labchip GX II), samples were analyzed using a HT Low MW Protein Express LabChip® Kit (following the manufacturer's protocol). A protein ladder was loaded every 12 samples for molecular weight determination (kDa) and quantification. For polyacrylamide gel electrophoresis, samples (1 μg) were separated on a NuPAGE® Novex® Bis-Tris Precast gel (Life Technologies) according to the manufacturer's protocol. The gel was stained using SimplyBlue™ SafeStain (Invitrogen) and imaged using a Chemidoc XRS+ (BioRad) or transferred onto nitrocellulose membranes using the iBlot® Dry Blotting System (Life Technologies) and iBlot® Western Detection Kit (Life Technologies) according to the manufacturer's protocol. Proteins were detected by blotting with Anti-His [C-term]-HRP antibody diluted 3:5000 in Blok™-PO Blocking Buffer using the SNAP I.d.® Protein Detection System (Millipore) according to the manufacturer's protocol. Blots were treated with Luminata Classico Western HRP Substrate (Millipore) according to the manufacturer's protocol and imaged using chemiluminescent detection on the Molecular Imager® Gel Doc™ XR+ System (Bio-Rad). Quantification of intact protein was determined by densitometry using ImageLab (BioRad). For all analysis methods the relative concentration of the polypeptide at each time point (if detected) was plotted overtime and fit to an exponential curve to calculate the intact half-life.
Specifically, the t=0 (enzyme-free control) and t=2 min samples from the SGF digest were analyzed for intact protein as described by chip electrophoresis, SDS-PAGE, western blot, and/or LC-MS/MS. Relative quantities of polypeptides at each time point were determined and the percentage of intact protein remaining at t=2 was determined. Intact half-life values determined using this method are reported as greater or less than 2 min to indicate more or less than 50% of the protein remained intact at t=2 min, respectively.

[4] = SGF digest of 168 nutritive polypeptide library, intact protein by LC-MS/MS; assay type: in vitro ADME; settings: for % Intact Protein at 10 min: 168 nutritive polypeptide library SGF digest, LC-MS/MS spectral counts; for % Remaining at 10 min: 168 nutritive polypeptide library, LC-MS/MS
Method in brief: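 A 168-protein IMAC-purified recombinant library was digested in simulated gastric fluid and the 0 and 10 min samples were profiled by SDS-PAGE fractionation, in-gel trypsin digestion and nanoLC-MS/MS. Percent intact protein at 10 min is the ratio of spectral counts (t10/t0), summed over the peak fraction and two flanking fractions. Filters were 1% FDR and at least two unique peptides.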

| Molecule | pH Range where Protein is >80% detected as Soluble and A650 <1 OD: Low [1] | pH Range where Protein is >80% detected as Soluble and A650 <1 OD: High [1] | Tagg (pH 7.1) [2] | SGF Half-life (t½) [3] [min] | % Intact Protein at 10 min [4] [%] | % Remaining at 10 min [4] [%] | pH Range where Protein is >80% detected as Soluble and A650 <1 OD: Other [1] | Tagg ([2]; pH 2.8) | Tagg ([2]; pH 3.7) | Tagg ([2]; pH 4.3) | Tagg ([2]; pH 4.6) | Tagg ([2]; pH 5.0) | Tagg ([2]; pH 5.6) | Tagg ([2]; pH 6.0) | Tagg ([2]; pH 6.5) | Tagg ([2]; pH 7.1) | Half-life [3] [s] | Tagg ([2]; pH 3.9) |
| --- | --- | --- | --- | --- | --- | --- | --- | --- | --- | --- | --- | --- | --- | --- | --- | --- | --- | --- |
| SEQID-00269: nutritive polypeptide (protein) DLKKKLDDDLGTLENLEELKKKLLKDLELLSQRLEELALAYDKLEKTKTRLQQELDDLLLDLDHQ | 7.2 | 9.1 | >95 | 41 |  |  |  |  |  |  |  |  |  |  |  |  |  |  |
| SEQID-00502: protein of the 168 nutritive polypeptide library (protein, Glycine max, protein of the 168 nutritive polypeptide library) MASQSNTKSVHDFTVKDARGNNVNLADYKGKVLLIVNVASQCGLTNSNYTELNQLYEKYKGKGLEILAFPCNQFGAQEPGTNEEIVEFACTRFKAEFPIFDKVDVNGDNAAPLYKFLKSSKGGLFGDSIKWNFSKFLVDKDGNVVDRYAPTTSPLSIEKDIKKLLDA | 7.1 |  |  | 0.6 | 9.7 | 9.7 | 2.8 | 95 | 95 | 95^ | 95^ | 77 | 77 | 76.5 | 78.5 | 95 | 36 |  |
| SEQID-00510: nutritive polypeptide naturally produced in Turkey, recombinantly expressed in E. coli (protein, Meleagris gallopavo, nutritive polypeptide naturally produced in Turkey, recombinantly expressed in E. coli) MVPIAEKMAEKQEEPSNTQNGEPDNAEEGEGKKKKKVKREDLPPFEIVTGERLPAIFFKFQFRNVEYSSGRNKTFLCYVVETQGKESTTSRGYLEDEHAASHAEIAFFNTILPKCESSLRYNITWYVSSSPCVTCADRISETLRKNKNLRLTIMVGRLFMWEEPEMQAALKKMKSAGCKLRIMKPQDFEYVWQNFVEQEEGEEAKAFVPWEDIQENFQYYEEKLAEILQ | 6.5 | 7.1 | 57.5 | 0.3 | 13.4 | 13.4 | 2.8 |  |  |  |  |  |  |  |  |  | 18 |  |
| SEQID-00622: protein of the 168 nutritive polypeptide library (protein, listed as Oryza sativa, source: /note="subsp. japonica", protein of the 168 nutritive polypeptide library) MASEGAVSPAFAYTVVYVKDVAKSAAFYSAAFGYTVRRLDQSHKWAELESGTTTIAFTPLHQRETDALTGAVQLPDSAGERGPVEICFDYADVDAAYRRAVDSGAVPVSPPEQKSWGQKVGYVRDIDGIIVRMGSHVRA | 2.8 | 7.1 |  | 6.6 | 43.6 | 43.6 |  | 58.5 | 42 | 43.5 | 43.5 | 42.5 | 45.5 | 46 | 47 | 95 | 396 | 42 |
| SEQID-00511: protein of the 168 nutritive polypeptide library (protein, Arthrospira platensis C1, protein of the 168 nutritive polypeptide library) MVLFGFGKKKSLPKPEEALPGRDRVMSVPDRHYINGNPLKPPFPEGMEQAVFGLGCFWGAERKFWQQQGVFSTAVGYAGGYTKNPTYEEVCSGMTGHTEVVLVVFDPKVISYTDLLKLFWESHNPTQGMRQGNDTGTQYRSAIYTYSDEQQRLALASRDRYQQALSAASYGEITTEIAPAQEFYYAEAYHQQYLGKNPNGYCGLGGTGVGCPAMTETSV | 5.6 | 7.1 |  | 0.3 | 4.3 | 4.3 |  |  |  |  |  |  |  | 39.5 | 45.5 | 42 | 18 |  |
| SEQID-00265: nutritive polypeptide (protein, listed as Bos taurus) SEGDRLRVELAEKANKLQNELDNVSTLLEEAEKKGIKFAKDAAGLESQLQDTQELLQEETRQKLNLSSRIRQLEEERSSLQEQQEEEEEARRSLEKQLQALQAQLTDTKKKVDDDLGTIENLEEAKKKLLKDVEVLSQRLEEKALAYDKLEKTKTRLQQELDDLLVDLDHQRQIVSNLEKKQKKFDQLLAEEKNISARYAEERDRAEAEAREKETKALSLARALEEALEAREEAERQNKQLRADMEDLMSSKDDVGKNVHELEKSKRALE | 5.1 | 9.1 | >95 | 29 |  |  | 3 |  |  |  |  |  |  |  |  |  |  |  |
